Test results published in publication PMC7232412.

Columns and labels:
[1] = target: HIV-1 Gag p6 (pGBT p6) (UniProt P04591); assay: yeast 2-hybrid assay; conditions: parent: est. 1.0; read off a plot
[2] = target: HIV-1 Gag p6 with ubiquitin fused to its C-terminus (pGBT p6-Ub), P04591;P0CG48; assay: yeast 2-hybrid assay; conditions: parent: est. 1.0; read off a plot

Which ratio to parent [1] does the source give for “human Tsg101 wild-type (pGAD-hTsg101) (from UniProt Q99816) Y43A” here?
Its ratio to parent is 1.4.

And the ratio to parent [2]?
Its ratio to parent is 1.5.
